Laboratory results: paper doi:10.1101/2023.12.12.571217 (2023)
Positions of bridges follow the written chain, without caps; N, C: chain ends.

B1: PADI4_11 (peptide)
chain: {CH2CO}-YESCRYRQVLQL-NH2
modifications: thioether N-4
SMILES: CC(C)C[C@H](NC(=O)[C@H](CCC(N)=O)NC(=O)[C@H](CC(C)C)NC(=O)[C@@H](NC(=O)[C@H](CCC(N)=O)NC(=O)[C@H](CCCNC(=N)N)NC(=O)[C@H](Cc1ccc(O)cc1)NC(=O)[C@H](CCCNC(=N)N)NC(=O)[C@@H]1CSCC(=O)N[C@@H](Cc2ccc(O)cc2)C(=O)N[C@@H](CCC(=O)O)C(=O)N[C@@H](CO)C(=O)N1)C(C)C)C(N)=O

Legend:
[1] = target: T1, N-terminally biotinylated PADI4 (bio-His-PADI4), recombinant human peptidylarginine deiminase IV (human, UniProt Q9UM07 1-663, biotin on the N-terminal Avi-Tag (BirA co-expression)); test: SPR; 10 mM CaCl2 + Cl-amidine
T1 sequence (Q9UM07 whole entry): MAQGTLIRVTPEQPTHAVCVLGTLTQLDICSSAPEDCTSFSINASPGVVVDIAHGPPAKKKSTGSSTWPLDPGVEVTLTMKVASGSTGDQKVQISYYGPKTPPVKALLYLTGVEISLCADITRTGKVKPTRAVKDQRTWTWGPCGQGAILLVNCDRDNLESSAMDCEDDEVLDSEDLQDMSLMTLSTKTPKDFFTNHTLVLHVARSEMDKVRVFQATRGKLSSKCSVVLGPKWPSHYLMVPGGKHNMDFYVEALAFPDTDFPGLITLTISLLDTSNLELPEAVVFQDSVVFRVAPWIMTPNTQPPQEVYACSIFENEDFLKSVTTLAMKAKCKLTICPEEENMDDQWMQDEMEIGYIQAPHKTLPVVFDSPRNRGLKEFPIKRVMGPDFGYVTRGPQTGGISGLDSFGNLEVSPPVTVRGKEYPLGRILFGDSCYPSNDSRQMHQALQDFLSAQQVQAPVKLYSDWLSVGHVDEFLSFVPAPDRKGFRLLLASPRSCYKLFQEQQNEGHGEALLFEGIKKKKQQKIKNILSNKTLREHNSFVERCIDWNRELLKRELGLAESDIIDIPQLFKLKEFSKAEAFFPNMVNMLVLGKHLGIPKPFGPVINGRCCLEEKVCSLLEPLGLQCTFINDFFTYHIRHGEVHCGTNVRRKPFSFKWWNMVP

[2] = target: T1, N-terminally biotinylated PADI4 …; test: SPR; 10 mM CaCl2
[3] = target: T1, N-terminally biotinylated PADI4 …; test: SPR; 0 mM CaCl2
PADI4_N373A = test: SPR
PADI4_D165A = PADI4_D165A (human, UniProt Q9UM07 1-663, D165A); test: SPR
Chain of PADI4_D165A (Q9UM07 whole entry D165A): as the sequence (Q9UM07 whole entry) above, with D165A counted along it

[4] = target: T1, N-terminally biotinylated PADI4 …; test: SPR
PADI4 variant D168A = PADI4 variant D168A (human, UniProt Q9UM07 1-663, D168A); test: SPR
Chain of PADI4 variant D168A (Q9UM07 whole entry D168A): as the sequence (Q9UM07 whole entry) above, with D168A counted along it

PADI4 variant E167A = PADI4 variant E167A (human, UniProt Q9UM07 1-663, E167A); test: SPR
Chain of PADI4 variant E167A (Q9UM07 whole entry E167A): as the sequence (Q9UM07 whole entry) above, with E167A counted along it

PADI4 variant R394A = PADI4 variant R394A (human, UniProt Q9UM07 1-663, R394 with an alanine); test: SPR
Chain of PADI4 variant R394A (Q9UM07 whole entry R394A): as the sequence (Q9UM07 whole entry) above, with R394A counted along it

PADI4 variant C166F = PADI4 variant C166F (human, UniProt Q9UM07 1-663, C166 with bulky phenylalanine); test: SPR
Chain of PADI4 variant C166F (Q9UM07 whole entry C166F): as the sequence (Q9UM07 whole entry) above, with C166F counted along it

[5] = target: T1, N-terminally biotinylated PADI4 …; test: SPR; remark: listed apart in the source

Binder | Kd [1] | Kd [2] | Kd [3] | Kd (PADI4_N373A) | Kd (PADI4_D165A) | Kd [4] | Kd (PADI4 variant D168A) | Kd (PADI4 variant E167A) | Kd (PADI4 variant R394A) | Kd (PADI4 variant C166F) | Kd [5]
B1 | 382 nM | 457 nM | > 5000 nM | > 10000 nM | 3000 nM | 457 nM | 4000 nM | 700 nM | > 10000 nM | > 10000 nM | 500 nM
{CH2CO}-YESCRYKQVLQL-NH2 (thioether N-4) [PADI4_11 variant with lysine at R7] | – | – | – | – | – | – | – | – | – | – | 700 nM
{CH2CO}-YESCKYRQVLQL-NH2 (thioether N-4) [PADI4_11 variant with lysine at R5] | – | – | – | – | – | – | – | – | – | – | 1400 nM
